We go through ten molecules from US20160289270A1, “Methods, Peptides and Antibodies for Preventing, Treating and Diagnosing an Inflammatory Condition” (WESTFAELISCHE WILHELMS-UNIVERSITAET MUENSTER, priority 2013, published 2016).

B1: S100A9E64A: purified recombinant S100A9 mutant, alanine instead of E64 (protein)
chain: MTCKMSQLERNIETIINTFHQYSVKLGHPDTLNQGEFKELVRKDLQNFLKKENKNEKVIEHIMADLDTNADKQLSFEEFIMLMARLTWASHEKMHEGDEGPGHHHKPGLGEGTP
B2: S100A9D65A: purified recombinant S100A9 mutant, alanine instead of D65 (protein)
chain: MTCKMSQLERNIETIINTFHQYSVKLGHPDTLNQGEFKELVRKDLQNFLKKENKNEKVIEHIMEALDTNADKQLSFEEFIMLMARLTWASHEKMHEGDEGPGHHHKPGLGEGTP
B3: S100A9K72A: purified recombinant S100A9 mutant, alanine instead of K72 (protein)
chain: MTCKMSQLERNIETIINTFHQYSVKLGHPDTLNQGEFKELVRKDLQNFLKKENKNEKVIEHIMEDLDTNADAQLSFEEFIMLMARLTWASHEKMHEGDEGPGHHHKPGLGEGTP
B4: S100A9E77A: purified recombinant S100A9 mutant, alanine instead of E77 (protein)
chain: MTCKMSQLERNIETIINTFHQYSVKLGHPDTLNQGEFKELVRKDLQNFLKKENKNEKVIEHIMEDLDTNADKQLSFAEFIMLMARLTWASHEKMHEGDEGPGHHHKPGLGEGTP
B5: S100A9R85A: purified recombinant S100A9 mutant, alanine instead of R85 (protein)
chain: MTCKMSQLERNIETIINTFHQYSVKLGHPDTLNQGEFKELVRKDLQNFLKKENKNEKVIEHIMEDLDTNADKQLSFEEFIMLMAALTWASHEKMHEGDEGPGHHHKPGLGEGTP
B6: S100A9Q73A: purified recombinant S100A9 mutant, alanine instead of Q73 (protein)
chain: MTCKMSQLERNIETIINTFHQYSVKLGHPDTLNQGEFKELVRKDLQNFLKKENKNEKVIEHIMEDLDTNADKALSFEEFIMLMARLTWASHEKMHEGDEGPGHHHKPGLGEGTP

The target in the first assay is TLR4/MD2 (Homo sapiens, UniProt O00206+Q9Y6Y9). As to the kind of experiment: Modified S100A9-ELISA: binding of S100A9-wt and mutant proteins to plate-coupled TLR4/MD2. As to conditions: 2 μg/ml protein, two hours at room temperature, absorbance at 450 nm, FIG. 4B/4C. As to the method: Binding of S100A9 proteins to TLR4/MD2 was analysed by a modified S100A9-ELISA. Briefly, TLR4/MD2 was coupled to the wells of a 96-well plate and served as capturing molecule. After blocking of the unspecific binding sites by PBS/5% skim milk powder plates were washed three times. S100A9-wt or mutant S100A9 proteins were added at a concentration of 2 μg/ml each in the presence and absence of 100 μM Calcium and incubated for two hours at room temperature. Unbound S100A9 was removed by washing the plates for three times followed by the addition of a primary anti-S100A9-antibody (1 μg/ml, polyclonal, rabbit). After a washing step the secondary anti-rabbit-IgG-antibody coupled to HRP (1 μg/ml from Cell Signalling) was added. TMB was used as substrate for HRP to quantify binding by absorbance readings at 450 nm in an ELISA reader (Anthos Mikrosysteme).
Chain of TLR4/MD2 (O00206 24-631 limits assumed): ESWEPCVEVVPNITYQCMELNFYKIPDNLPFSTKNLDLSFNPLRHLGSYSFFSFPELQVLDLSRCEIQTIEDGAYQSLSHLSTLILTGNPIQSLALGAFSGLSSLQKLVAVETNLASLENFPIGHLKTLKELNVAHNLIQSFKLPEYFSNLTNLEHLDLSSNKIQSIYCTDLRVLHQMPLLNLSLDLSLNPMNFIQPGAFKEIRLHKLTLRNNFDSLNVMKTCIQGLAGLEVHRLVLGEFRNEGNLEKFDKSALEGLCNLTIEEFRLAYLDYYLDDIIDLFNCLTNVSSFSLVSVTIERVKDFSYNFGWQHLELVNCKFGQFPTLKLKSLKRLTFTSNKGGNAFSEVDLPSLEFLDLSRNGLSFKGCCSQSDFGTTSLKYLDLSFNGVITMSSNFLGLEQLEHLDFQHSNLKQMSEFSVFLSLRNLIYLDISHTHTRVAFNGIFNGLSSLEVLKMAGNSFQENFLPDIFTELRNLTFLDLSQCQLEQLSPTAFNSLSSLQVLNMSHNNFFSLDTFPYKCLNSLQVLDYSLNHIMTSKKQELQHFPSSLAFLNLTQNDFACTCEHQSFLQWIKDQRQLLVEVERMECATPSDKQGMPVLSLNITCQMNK
Chain of TLR4/MD2 (Q9Y6Y9 17-160 limits assumed): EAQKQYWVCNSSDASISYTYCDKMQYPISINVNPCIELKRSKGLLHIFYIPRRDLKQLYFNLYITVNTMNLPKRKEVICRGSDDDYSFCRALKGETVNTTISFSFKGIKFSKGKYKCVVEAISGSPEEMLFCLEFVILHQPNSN
On the technique in general: An ELISA detects its analyte on a solid surface through an enzyme-linked reagent.
For the molecule B1, the “binding to the receptor TLR4/MD2 compared to non-mutated protein (S100A9 wt)” value was “weaker binding”.
On the same count and under the same terms, in the case of B2 it was “weaker binding”; in that of B3, “not significantly different”; in that of B4, “weaker binding”.
As for B5, the “binding to the receptor TLR4/MD2 compared to non-mutated protein (S100A9 wt)” value was “not significantly different”.
B6: the “binding to the receptor TLR4/MD2 compared to non-mutated protein (S100A9 wt)” value is on record as “weaker binding”.

The target of a further assay is T1, his-tagged rhTLR4/MD2 (Homo sapiens, UniProt O00206+Q9Y6Y9).
T1 construct: purchased R&D SYSTEMS
T1 sequence (O00206 24-631 limits assumed): as the sequence (O00206 24-631 limits assumed) above
T1 sequence (Q9Y6Y9 17-160 limits assumed): as the sequence (Q9Y6Y9 17-160 limits assumed) above
Put plainly: Immunoprecipitation on TLR4/MD2-coupled beads, eluates analysed by MALDI-TOF mass spectrometry. Format: binding. As to conditions: beads with TLR4/MD2, 3 h at 4° C., 1 mM Calcium, elution with 10 mM TRIS/2 mM EDTA. As to the method:
Anti-His antibody (5 μL, 0.5 mg/mL, Invivogen) and his-tagged rhTLR4/MD2 (5 μL, 1 mg/mL, carrier free, R&D SYSTEMS) were mixed and coupled to Protein A/G Agarose ([…], Thermo Scientific). Trypsin digested peptides of S100A9 were added for 3 h at 4° C. in the presence of 1 mM Calcium. After washing of the beads in HBS/1 mM Ca-buffer for three times bound peptidic fragments were eluted by addition of 10 mM TRIS/2 mM EDTA-buffer and analysed by ESI and MALDI-TOF-mass spectrometry. Identical experiments were performed to analyze the binding of the chemical synthesized peptides of S100A9 (aa63-79), S100A8 (aa55-71) and the corresponding control peptides aa63-79 A5 and aa55-71 A3.
On to “No. 15: tryptic fragment of human S100A9, amino acid sequence from positions 73 to 85, portion of the C-terminal EF Hand (QLSFEEFIMLMAR; UniProt P06702 73-85, looked up, fragment)”, for which the “binding to TLR4/MD2 (peptide detected in eluate by MALDI-TOF mass spectrometry)” value (“binding to TLR4/MD2” for short) is “specific interaction with TLR4/MD2”.
On to “55-71: synthetic peptide, positions 55-71 of human S100A8, complete C-terminal EF hand, FKELDINTDGAVNFQEF”, for which the “binding to TLR4/MD2” value is recorded as “able to bind to TLR4/MD2”.
In the case of “63-79: synthetic peptide, amino acid positions 63-79 of S100A9, complete C-terminal EF hand, MEDLDTNADKQLSFEEF”, the “binding to TLR4/MD2” value is “able to bind to TLR4/MD2”.
For “63-79 A5: control peptide, S100A9 positions 63-79 with E64A, D65A, Q73A, E77A and K72A exchanged to alanine (MAALDTNADAALSFAEF) [reference compound]”, the “binding to TLR4/MD2” value was “no binding could be detected”.
